Assay results: patent US20250011413A1 (MCMASTER UNIVERSITY, published 2025)
Numbering of substitutions follows the chain as printed. Names may count otherwise.

Tests used:
[1] = target: T1, PF4/heparin complex (human PF4 complexed with heparin) (human, UniProt P02776 32-101); test: BLI (Octet), biotinylated PF4/heparin on streptavidin sensors, scFv 1 µg/mL, 1:1 model
T1 construct: Multimeric complex of PF4 with heparin (not a protein); In the EIAs: PF4 captured on biotinylated heparin on streptavidin plates; In the SRA: platelets with 0.2 U/mL heparin; also called PF4 and heparin complexes
T1 sequence: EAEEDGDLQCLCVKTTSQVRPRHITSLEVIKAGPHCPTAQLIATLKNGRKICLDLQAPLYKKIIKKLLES
Experimental: (§1) The Octet-QK Red 96 (FortéBio, Menlo Park, CA) instrumentation was used to conduct all BLI experiments. A 96-well microtiter plate (black, flat-bottom) was used to hold 200 μL per well of either sample or buffer. Pre-coated streptavidin biosensor tips (FortéBio) were hydrated in phosphate buffered saline (PBS) containing 1% bovine serum albumin (BSA, Sigma-Aldrich) before performing all kinetic assays. Each step was performed at an operating temperature of 23° C. with agitation at 1000 rpm. Streptavidin tips were first equilibrated in PBS+1% BSA to establish a baseline. […] The PF4-coated tips were then dipped into PBS+1% BSA for 13 minutes to re-establish a baseline. Tips were then incubated in an analyte solution containing half-fold dilutions of wildtype scFv (4.0, 2.0, 1.0, 0.5, 0.25 μg/mL in PBS+1% BSA) for 10 minutes to measure association. For mutant scFv association, tips were incubated in an analyte solution containing 200 μL of each mutant and wildtype scFv at a final concentration of 1 μg/mL in PBS+1% BSA. Antibody dissociation steps were performed by dipping sensors in wells containing PBS+1% BSA for 56 minutes. The following negative controls included in these kinetic experiments were also measured: 200 μL of buffer to replace both the antigen and scFv and 200 μL buffer replacing scFv only. Each experiment was performed with PF4 or with PF4/heparin as the immobilized antigen.
(§2) BLI experiments were performed to evaluate binding responses and affinities of wildtype and mutant scFv. Biotinylated PF4 alone or complexed with heparin was immobilized on streptavidin biosensors and used to capture wildtype scFv. Half-fold serial dilutions of wildtype scFv ranging from 0.25 μg/mL to 4 μg/mL were used to determine the optimal concentrations for future experiments PF4 (PF4 FIG. 3; PF4/heparin FIG. 4).

[2] = target: T1, PF4/heparin complex (human PF4 …); test: competition EIA, scFv 50 µg/mL; competitor HIT-positive sera antibodies, n=10
[3] = target: T2, Human PF4 (CXCL4), biotinylated, without heparin (human, UniProt P02776 32-101, biotinylated with EZ-link-Sulfo-NHS-LC-Biotin (sites not given)); test: BLI (Octet), biotinylated PF4 without heparin on streptavidin sensors, scFv 1 µg/mL
T2 construct: Immobilised on streptavidin biosensors for BLI; also called PF4 alone; platelet factor 4
T2 sequence: T1 sequence
Experimental: as §1, §2

[4] = target: T1, PF4/heparin complex (human PF4 …); test: BLI (Octet), biotinylated PF4/heparin on streptavidin sensors, scFv at 1 µg/mL, 1:1 model, mean ± s.d.
Experimental: BLI experiments were performed using wildtype scFv, mutant B, mutant C, mutant D, mutant E, and mutant F at 1 μg/mL. Binding was measured against immobilized biotinylated PF4/heparin complexes on streptavidin biosensors. b) Table showing kinetic data of wildtype and mutant scFv, including binding responses and association and dissociation rates. All data was analyzed based on a 1:1 homogenous ligand binding model using Octet®) User Software version 3.1.
as §1
BLI experiments were performed to evaluate binding responses and affinities of wildtype and mutant scFv. Biotinylated PF4 alone or complexed with heparin was immobilized on streptavidin biosensors and used to capture wildtype scFv.

[5] = target: T2, Human PF4 (CXCL4), biotinylated, …; test: BLI (Octet), biotinylated PF4 without heparin on streptavidin sensors, 1:1 model; scFv at 0.25 µg/mL (response near baseline, software limit value)
Experimental: All data was analyzed based on a 1:1 homogenous ligand binding model using Octet® User Software version 3.1.
as §1, with “Antibody dissociation steps were performed by dipping sensors in wells containing PBS+1% BSA for 56 minutes.” left out, “Each experiment was performed with PF4 or with PF4/heparin as the immobilized antigen.” left out

[6] = target: T1, PF4/heparin complex (human PF4 …); test: cell-based or functional assay
[7] = target: T1, PF4/heparin complex (human PF4 …); test: competition EIA, scFv 50 µg/mL; competitor HIT-negative sera antibodies, n=10
Experimental: Inhibitory PF4/heparin IgG-specific Streptavidin Enzyme Immunoassay (EIA). The binding activity of wildtype and mutant scFv antibodies to PF4/heparin complexes was measured using an inhibitory PF4/heparin IgG-specific EIA with a streptavidin-biotin capture system. Before performing this protocol, 96-well NUNC Maxisorp plates (ThermoFisher) were coated with 10 μg/mL streptavidin for 24 h. Plates were then blocked with 3% bovine serum albumin (BSA) in phosphate buffered saline (PBS) for 2 h at room temperature. Plates were then coated with 1 U/mL biotinylated-heparin for 1 h followed by 30 μg/mL PF4 for 1 h. Increasing concentrations of wildtype or mutant scFv were added and incubated for 1 hr at room temperature. Without removing wildtype or scFv, HIT patient sera in a 1:50 dilution or full-length KKO (2 μg/mL) was then incubated for 1 h at room temperature. After washing, alkaline phosphatase-conjugated anti-human or anti-mouse IgG (Jackson Immuno Research Laboratories, Inc., West Grove, PA) was added at a 1:4000 dilution and incubated for 1 h temperature. For detection, 1 mg/mL p-nitrophenylphosphate (PNPP, Sigma-Aldrich) substrate dissolved in 1 mol/L diethanolamine (DEA) buffer (pH 9.6) was added. The optical density (OD) was measured at 2 min intervals for 30 min at 405 nm (OD₄₀₅ₙₘ) using a BioTek 800 TS plate reader (BioTek Instruments Inc., Winooski, VT) to determine if anti-PF4/heparin antibody binding was inhibited. Results were reported as a decrease in OD (absorbance at 405 nm) from baseline levels.
Sera (n=10) from confirmed HIT-negative patients (EIA-positive/SRA-negative) containing anti-PF4/heparin antibodies were then used in the same EIA with scFv constructs to determine if antibody binding was decreased in this cohort (Table 5).

B1: Wildtype scFv (KKO-derived single chain variable fragment) (scFv)
scFv: DIQMIQSQKFMSTSVGDRVTVTCKASQNVGTNVAWYQQKPGQSPNALIYSASYRYSGVPDRFTGSGSGTDFTLTITNVQSEDLADYFCQQYNSYPLTFGTGTKLDLKGGGGSGGGGSGGGGSVQLQQSGAELVKPGASVKLSCKASGYTFTNYFIYWVKQRPGQGLEWIGEINPRNGDTDFNEKFESRATLTVDKSSSTAYMQLSSLTSEDSAIYYCTRSPYGNNYGFTYWGQGTLVTVSA
notes: VL-(G4S)3 linker-VH; expressed in E. coli BL21 from pADL-22c, purified on Ni-NTA as histidine-tagged scFv, about 28 kDa; also called WT; KKO-scFv; not shown: histidine tag from the pADL-22c vector
- Kd [1]: 5.38 nM
- mean % inhibition of serum antibody binding [2]: 44.7%
- average binding response (wavelength shift) [3]: 0.0386 nm
- koff [4]: 0.000519 s⁻¹
- kon [4]: 96700 M⁻¹ s⁻¹
- Kd [5]: < 0.001 nM
- % inhibition of 14C-serotonin release (SRA), HIT-Positive Patient #1 serum, scFv 50 µg/mL [6]: 15.6%
- % inhibition of 14C-serotonin release (SRA), HIT-Positive Patient #1 serum, scFv 75 µg/mL [6]: 17.8%
- % inhibition of 14C-serotonin release (SRA), HIT-Positive Patient #2 serum, scFv 50 µg/mL [6]: 37.2%
- % inhibition of 14C-serotonin release (SRA), HIT-Positive Patient #2 serum, scFv 75 µg/mL [6]: 15.4%
- % inhibition of 14C-serotonin release (SRA), HIT-Positive Patient #3 serum, scFv 50 µg/mL [6]: 4.8%
- % inhibition of 14C-serotonin release (SRA), HIT-Positive Patient #3 serum, scFv 75 µg/mL [6]: 12%
- % inhibition of 14C-serotonin release (SRA), HIT-Positive Patient #4 serum, scFv 50 µg/mL [6]: 6.7%
- % inhibition of 14C-serotonin release (SRA), HIT-Positive Patient #4 serum, scFv 75 µg/mL [6]: 4.4%
- % inhibition of 14C-serotonin release (SRA), HIT-Positive Patient #5 serum, scFv 50 µg/mL [6]: -6.9%
- % inhibition of 14C-serotonin release (SRA), HIT-Positive Patient #5 serum, scFv 75 µg/mL [6]: 20.8%
- mean OD405nm of bound serum IgG (+ scFv) [7]: 1.41 OD405nm

B2: Mutant F scFv, scFv(E183V, E186K, G223R) (scFv)
scFv: B1 scFv with E183V, E186K, G223R
notes: VL-linker-VH; histidine-tagged, from E. coli BL21; also called Mut F; not shown: histidine tag from the pADL-22c vector
- Kd [1]: 0.292 nM
- mean % inhibition of serum antibody binding [2]: 80%
- average binding response (wavelength shift) [3]: 0.211 nm
- fold increase of binding response against wildtype scFv [3]: 5 fold
- koff [4]: 1.41e-05 s⁻¹
- kon [4]: 50900 M⁻¹ s⁻¹
- % inhibition of 14C-serotonin release (SRA), HIT-Positive Patient #1 serum, scFv 50 µg/mL [6]: 97.8%
- % inhibition of 14C-serotonin release (SRA), HIT-Positive Patient #2 serum, scFv 50 µg/mL [6]: 21.8%
- % inhibition of 14C-serotonin release (SRA), HIT-Positive Patient #3 serum, scFv 50 µg/mL [6]: 50.6%
- % inhibition of 14C-serotonin release (SRA), HIT-Positive Patient #4 serum, scFv 50 µg/mL [6]: 50%
- % inhibition of 14C-serotonin release (SRA), HIT-Positive Patient #5 serum, scFv 50 µg/mL [6]: 90.3%
- mean OD405nm of bound serum IgG (+ scFv) [7]: 1.19 OD405nm
